T1: human CD22-ECD-His protein (human, UniProt P20273 20-687)
T1 construct: Made in house in HEK293E; also called hCD22-ECD-His; recombinant human CD22-ECD His protein; not shown: His tag
T1 sequence: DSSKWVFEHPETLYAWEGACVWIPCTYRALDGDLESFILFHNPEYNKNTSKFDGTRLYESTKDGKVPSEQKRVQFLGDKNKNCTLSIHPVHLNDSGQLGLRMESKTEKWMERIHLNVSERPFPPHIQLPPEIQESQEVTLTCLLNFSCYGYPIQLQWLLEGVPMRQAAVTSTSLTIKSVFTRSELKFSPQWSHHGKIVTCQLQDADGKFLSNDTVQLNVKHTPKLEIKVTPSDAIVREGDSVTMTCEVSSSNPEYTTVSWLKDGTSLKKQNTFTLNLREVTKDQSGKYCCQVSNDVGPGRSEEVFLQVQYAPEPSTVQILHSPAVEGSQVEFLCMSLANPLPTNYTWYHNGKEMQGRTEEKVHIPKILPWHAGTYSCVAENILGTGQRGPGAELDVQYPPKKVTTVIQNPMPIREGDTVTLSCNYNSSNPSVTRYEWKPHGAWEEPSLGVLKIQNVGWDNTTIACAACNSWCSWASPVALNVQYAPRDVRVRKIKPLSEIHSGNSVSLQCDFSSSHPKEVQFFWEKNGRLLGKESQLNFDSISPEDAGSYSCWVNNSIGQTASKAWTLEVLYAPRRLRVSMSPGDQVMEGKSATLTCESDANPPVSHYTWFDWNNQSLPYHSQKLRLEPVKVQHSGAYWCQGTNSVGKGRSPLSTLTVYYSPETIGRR

T2: murine CD22 protein (ACROBiosystems, SI2-M52Ha) (murine, UniProt P35329 22-708)
T2 construct: extracellular domain; also called murine CD22-ECD; murine CD22-ECD-His
T2 sequence (looked up): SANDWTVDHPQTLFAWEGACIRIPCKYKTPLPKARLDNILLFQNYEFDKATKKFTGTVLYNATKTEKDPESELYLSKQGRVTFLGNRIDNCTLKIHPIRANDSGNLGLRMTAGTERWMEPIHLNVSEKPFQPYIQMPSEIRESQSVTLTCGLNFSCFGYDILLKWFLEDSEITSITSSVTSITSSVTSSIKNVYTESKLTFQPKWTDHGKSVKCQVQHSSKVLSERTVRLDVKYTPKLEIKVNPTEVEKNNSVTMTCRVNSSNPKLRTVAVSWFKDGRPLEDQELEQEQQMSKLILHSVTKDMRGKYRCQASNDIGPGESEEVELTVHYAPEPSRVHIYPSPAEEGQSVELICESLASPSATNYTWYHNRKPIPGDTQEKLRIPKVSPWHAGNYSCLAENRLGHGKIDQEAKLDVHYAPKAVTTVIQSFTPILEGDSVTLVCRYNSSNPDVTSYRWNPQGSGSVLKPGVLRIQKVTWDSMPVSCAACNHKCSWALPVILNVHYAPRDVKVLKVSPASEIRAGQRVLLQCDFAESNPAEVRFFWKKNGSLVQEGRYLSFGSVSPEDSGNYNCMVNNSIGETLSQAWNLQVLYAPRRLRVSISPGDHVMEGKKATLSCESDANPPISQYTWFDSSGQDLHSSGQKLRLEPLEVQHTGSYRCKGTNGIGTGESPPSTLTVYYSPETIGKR


How the values were obtained:
[1] = biological target: T1, human CD22-ECD-His protein; assay: ELISA, Ab 0.01 nM
In short: (§1)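 Coat: CD22-ECD-His 2 μg/mL PBS, 4 °C o/n. Block PBS/2% BSA 2 h RT. Ab 2 h 37 °C; HRP 2° 2 h 37 °C; TMB 30 min RT, 1.0 N HCl stop.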

[2] = biological target: T2, murine CD22 protein (ACROBiosystems, …); assay: ELISA, murine CD22-ECD-His coated
In short: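 Read-out is TMB absorbance after a 30 min room-temperature development stopped with 1.0 N HCl. It reflects chimeric antibody bound to plate-coated CD22 (2 μg/mL), detected with an HRP-labelled secondary antibody. Antibody and secondary incubations each ran 2 h at 37° C.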

[3] = biological target: T1, human CD22-ECD-His protein; assay: ELISA, Ab 0.10 nM
In short: as §1

OD450 [1] | binding result [2] | OD450 [3] | Binder
1.75 OD450 | no binding (tested: 100 nM) | 2.59 OD450 | F1.60.9 (antibody, human IgG1, kappa, V domains shown, Human-murine chimeric IgG1, kappa) VH: QVQLKESGPGLVAPSQSLSITCTVSGLSLNNYGVSWVRQPPGKGLEWLGVIWGDGSTNYHSALISRLSISKDNSKSQVFLKLNSLHTDDTATYYCAINWGDYWGQGTTLIVSS VL: DIKMTQSPSSMNASLGERVTITCKASQDINSYLSWFQQKPGKSPKILIYRANRLIDGVPSRFSGSGSGQDYSLTISSLEYEDMGIYYCLQYGVFPLTFGAGTKLELKR
1.29 OD450 | no binding (tested: 100 nM) | 1.93 OD450 | F2.343.16 (antibody, human IgG1, lambda, V domains shown, Human-murine chimeric IgG1, lambda) VH: QVQLKQSGPGLVQPSQSLSITCTVSGFSLTGYGVQWVRQSPGKGLEWLGVIWGGGGTDYNAAFISRLNIIKDNSKSQVFFKMNSLQADDTAIYYCARYSKYGHFDVWGTGTAVTVSS VL: QAVVTQESALTTSPGETVTLTCRSSTGAVTTSNYANWVQEKPDHLFTGLIGGTYNRVPGVPARFSGSLIGDKAALTITGAQTEDEAIYFCALWYSNHFWVFGGGTKLTVLG
1.55 OD450 | no binding (tested: 100 nM) | 1.8 OD450 | F2.180.16 (antibody, human IgG1, lambda, V domains shown, Human-murine chimeric IgG1, lambda) VH: EVKLVESGGGLVLPGGSLKISCAASGFTFSDYYMYWIRQTPDKRLEWVAYISNTGYSTFYPDSVKGRFTVSRDNAKNTLYLQMSRLQSEDTAMYYCARHGILYAMDYWGQGTSVTVSS VL: QPVLTQSSSASFSLGASAKLTCTLSSQYSTYTIGWYQQQPLKPPKYVMELKHDGSRHTGDGIPDRFSGSSSGADRYLSISNIQPEDEATYICGVGDTIKEQFMYVFGGGTKVTVLG

Source: US20240084003A1 (SIMCERE ZAIMING PHARMACEUTICAL, published 2024)
